Consider one molecule from article PMC11667269 (Journal for Immunotherapy of Cancer, 2024).

For test [1], the target named is human CD79b (hCD79b) immobilised for surface plasmon resonance (Homo sapiens, UniProt P40259). Kind of test: SPR. In general terms: Surface plasmon resonance follows binding to a sensor surface in real time, without labels.
Test [2] deals with CD19 expressed on K562 cells (K562-CD19) (Homo sapiens, UniProt P15391). Kind of test: flow cytometry on cells.
Sequence of CD19 expressed on K562 cells (K562-CD19) (P15391 20-556): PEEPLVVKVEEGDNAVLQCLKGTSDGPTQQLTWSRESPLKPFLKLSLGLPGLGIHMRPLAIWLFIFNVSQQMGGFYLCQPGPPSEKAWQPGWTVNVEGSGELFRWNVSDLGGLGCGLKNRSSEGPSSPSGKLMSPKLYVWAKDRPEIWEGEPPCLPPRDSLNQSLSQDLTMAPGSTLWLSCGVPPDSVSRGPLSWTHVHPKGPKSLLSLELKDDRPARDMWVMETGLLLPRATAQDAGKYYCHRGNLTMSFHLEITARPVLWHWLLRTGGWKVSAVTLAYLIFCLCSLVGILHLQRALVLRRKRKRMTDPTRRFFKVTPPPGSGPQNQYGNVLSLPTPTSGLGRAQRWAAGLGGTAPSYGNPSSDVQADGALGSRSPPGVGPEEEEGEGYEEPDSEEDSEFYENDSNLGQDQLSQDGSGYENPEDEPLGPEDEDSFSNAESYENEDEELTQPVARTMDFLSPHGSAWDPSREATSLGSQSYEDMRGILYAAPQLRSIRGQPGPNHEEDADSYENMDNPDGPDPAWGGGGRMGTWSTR

Sequence of human CD79b (hCD79b) immobilised for surface plasmon resonance (P40259 29-229): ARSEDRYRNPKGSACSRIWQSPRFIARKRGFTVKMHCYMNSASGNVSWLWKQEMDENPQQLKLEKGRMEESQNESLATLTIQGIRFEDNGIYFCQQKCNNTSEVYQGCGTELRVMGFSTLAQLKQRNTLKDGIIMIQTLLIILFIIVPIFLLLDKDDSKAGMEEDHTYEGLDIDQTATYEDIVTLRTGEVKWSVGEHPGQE

B1: CARLY2 monoclonal murine antibody against CD79b (mouse monoclonal IgG1 CD79b.1.50) (antibody, V domains shown)
VH: QVQLQQPGAELVRPGASVKLSCKASGYTFTTYWMNWVKQRPGQGLEWIGMIDPSDSETHYNQMFKDKATLTVDKSSTTAYMQLSSLTSEDSAVYYCARTLSYWGQGTLVTVSA
VL: not shown
Regarding B1, the figures for the binding result in test [1] and in test [2] were “binds” and “no binding”, respectively.
